We go through 167 variants from the RNAGym collection of RNA variant scans (doi:10.7554/elife.80360).

B1: CPEB3 Ribozyme (parent)
chain: GGGGGCCACAGCAGAAGCGUUCACGUCGCGGCCCCUGUCAGAUUCUGGUGAAUCUGCGAAUUCUGCUGU

The variants in this series derive from B1. Briefly: self-cleavage, relative activity (ratio to wild type); higher = more cleavage; co-transcriptional.
On to G2C G5U, for which the self-cleavage turned out to be 0.0585.

G2C G5C: the self-cleavage came to 0.0267.

With G2A G47U, the self-cleavage came to 0.276.

As to G3A U67A, the self-cleavage came out at 0.778.

Regarding G3A U69C, the self-cleavage is 0.97.

Consider G2C C22G, for which the self-cleavage was 0.02.

Consider G2U U26C, for which the self-cleavage was 0.077.

Turning to G2U U26A, the self-cleavage stood at 0.0542.

G3C C63G: the self-cleavage came to 0.0687.

G3C C63U: the self-cleavage worked out at 0.171.

Consider G3C U49A, for which the self-cleavage was 0.168.

For the variant G2U A15G, the self-cleavage was determined as 0.0981.

Turning to G3U A10G, the self-cleavage is 0.158.

As to G3A C7G, the self-cleavage came out at 0.112.

Turning to G3A C7A, the self-cleavage stood at 0.0813.

For the variant G3A A8C, the self-cleavage was found to be 0.721.

As for G3A A8G, the self-cleavage turned out to be 0.527.

In the case of G3C A42G, the self-cleavage amounted to 0.106.

Regarding G3C C6A, the self-cleavage was determined as 0.0513.

Take G3A U20C: the self-cleavage came out at 0.0517.

As for G3A U20G, the self-cleavage was 0.11.

Consider G3A U38C, for which the self-cleavage amounted to 0.419.

For G3A U38A, the self-cleavage was 0.514.

As for G3U A42U, the self-cleavage was 0.0748.

As for G3U A42C, the self-cleavage was 0.0373.

Turning to G3U A42G, the self-cleavage was 0.11.

Consider G2A C24A, for which the self-cleavage came out at 0.0565.

In the case of G2A C24U, the self-cleavage is 0.0737.

For the variant G3C A13G, the self-cleavage turned out to be 0.18.

Regarding G2U G30A, the self-cleavage came to 0.0872.

In the case of G2U G30C, the self-cleavage came out at 0.0703.

For the variant G3A A23U, the self-cleavage stood at 0.79.

Regarding G3U A23C, the self-cleavage was found to be 0.135.

Regarding G3U A23U, the self-cleavage amounted to 0.344.

G2A G25A: the self-cleavage worked out at 0.0813.

For G2C U69G, the self-cleavage is 0.0519.

As to G3C A23U, the self-cleavage is 0.28.

For G2A G41C, the self-cleavage was 0.0676.

Take G3U C27A: the self-cleavage was found to be 0.0666.

As to G2A C39G, the self-cleavage was found to be 0.0948.

As for G3A G30U, the self-cleavage was 0.107.

Turning to G3C U46G, the self-cleavage came to 0.068.

Take G3C C27A: the self-cleavage amounted to 0.0183.

For G1U U69C, the self-cleavage was 0.284.

In the case of G3U C6A, the self-cleavage worked out at 0.0458.

Consider G2U G11C, for which the self-cleavage worked out at 0.0923.

G2U A51C: the self-cleavage came out at 0.102.

In the case of G2U G65A, the self-cleavage was 0.0788.

Take G3A C6U: the self-cleavage stood at 0.245.

Consider G3A C6G, for which the self-cleavage turned out to be 0.0163.

With G3A C6A, the self-cleavage is 0.0773.

With G3A G31U, the self-cleavage came out at 0.154.

Regarding G3C C12G, the self-cleavage amounted to 0.0121.

As to G2C G41A, the self-cleavage was determined as 0.0552.

Turning to G3C G30U, the self-cleavage is 0.0314.

In the case of G3A A59C, the self-cleavage stood at 0.199.

For the variant G2C G47U, the self-cleavage is 0.0378.

Regarding G2C G47A, the self-cleavage stood at 0.0652.

With G2A C7G, the self-cleavage is 0.063.

G2A A13U: the self-cleavage is 0.121.

Take G3A C22U: the self-cleavage turned out to be 0.0997.

G2A G17C: the self-cleavage amounted to 0.0329.

Consider G2U A60G, for which the self-cleavage amounted to 0.0636.

As for G3C G5C, the self-cleavage was determined as 0.0475.

Take G3A U46A: the self-cleavage was found to be 0.67.

G3A U46C: the self-cleavage came out at 0.597.

For G3C C9U, the self-cleavage is 0.441.

As to G2U U61A, the self-cleavage came to 0.0837.

With G2U U61G, the self-cleavage turned out to be 0.112.

For the variant G2U A40G, the self-cleavage was determined as 0.0279.

Take G3C U67C: the self-cleavage was 0.218.

For G2C C39G, the self-cleavage amounted to 0.0347.

As for G2C C39A, the self-cleavage came out at 0.108.

G2C C34G: the self-cleavage is 0.0583.

Turning to G2U U69C, the self-cleavage was 0.208.

Take G2U U69A: the self-cleavage worked out at 0.124.

Consider G2A C54G, for which the self-cleavage worked out at 0.0929.

With G3A A51G, the self-cleavage was found to be 0.584.

Turning to G3U C18A, the self-cleavage came to 0.0631.

Regarding G3U C18G, the self-cleavage was 0.0415.

Consider G3U C18U, for which the self-cleavage turned out to be 0.0757.

G3C G19U: the self-cleavage amounted to 0.0242.

For the variant G2U C32A, the self-cleavage worked out at 0.107.

Turning to G3A G37C, the self-cleavage amounted to 0.126.

Regarding G2C U21C, the self-cleavage is 0.0403.

Consider G3C U62A, for which the self-cleavage came to 0.0658.

Consider G2C C24U, for which the self-cleavage is 0.0323.

Take G3U C7G: the self-cleavage was determined as 0.0286.

G2U A23G: the self-cleavage turned out to be 0.0867.

For the variant G3C A15U, the self-cleavage was found to be 0.0699.

In the case of G2C C27U, the self-cleavage is 0.0172.

Take G2C C7G: the self-cleavage was 0.0326.

Regarding G3C U69A, the self-cleavage came out at 0.209.

In the case of G2C U38A, the self-cleavage amounted to 0.0483.

Turning to G2A A10U, the self-cleavage was 0.336.

For G2A G68U, the self-cleavage is 0.335.

Consider G2A A8C, for which the self-cleavage came to 0.194.

On to G3C G68U, for which the self-cleavage was 0.374.

With G3C A51U, the self-cleavage stood at 0.115.

Take G2U U46G: the self-cleavage turned out to be 0.0727.

Regarding G3C C29U, the self-cleavage turned out to be 0.0376.

Regarding G3C C29A, the self-cleavage worked out at 0.0865.

G3C G48A: the self-cleavage turned out to be 0.117.

Regarding G2U A52U, the self-cleavage came to 0.0917.

Consider G2U A52G, for which the self-cleavage amounted to 0.0867.

As to G3A U53A, the self-cleavage was determined as 0.44.

Turning to G3C C66U, the self-cleavage worked out at 0.127.

As to G2A U44G, the self-cleavage came out at 0.0958.

Turning to G2A U44A, the self-cleavage stood at 0.111.

For G2C C54G, the self-cleavage came to 0.0261.

On to G2A C34G, for which the self-cleavage is 0.03.

Consider G2C C9U, for which the self-cleavage came to 0.0977.

As for G3C U20C, the self-cleavage is 0.

With G3A C9U, the self-cleavage came to 0.886.

For the variant G2C A42C, the self-cleavage is 0.0895.

In the case of G2C A42U, the self-cleavage came to 0.0317.

With G2A U49A, the self-cleavage worked out at 0.179.

For G2C G65A, the self-cleavage was 0.0284.

Regarding G2C G65U, the self-cleavage stood at 0.102.

In the case of G2C G3U, the self-cleavage was 0.0339.

Take G3A A40U: the self-cleavage stood at 0.379.

Regarding G3A A40C, the self-cleavage was 0.166.

As for G2U C9U, the self-cleavage is 0.176.

Turning to G2C A52U, the self-cleavage was 0.0375.

Regarding G2C A52G, the self-cleavage stood at 0.0291.

Consider G1U U61C, for which the self-cleavage was found to be 0.117.

Turning to G2U C18U, the self-cleavage came to 0.0941.

In the case of G2U C18A, the self-cleavage came to 0.0495.

Regarding G3A G47A, the self-cleavage was 0.65.

As to G2U G31A, the self-cleavage is 0.0769.

For G2C U43G, the self-cleavage was 0.0524.

On to G2U G3U, for which the self-cleavage stood at 0.0485.

For the variant G3A G25C, the self-cleavage worked out at 0.0661.

Turning to G3A G25A, the self-cleavage was 0.0615.

G2U U62C: the self-cleavage is 0.108.

Consider G2U U62A, for which the self-cleavage was 0.0777.

Regarding G3A U55A, the self-cleavage was found to be 0.395.

G2A A60G: the self-cleavage was determined as 0.0573.

Turning to G2A A60U, the self-cleavage is 0.0695.

Take G2C C35U: the self-cleavage stood at 0.0408.

Take G2A U38G: the self-cleavage was found to be 0.0237.

For G2A U53A, the self-cleavage was 0.111.

For the variant G2A U53C, the self-cleavage turned out to be 0.104.

For G3C C35G, the self-cleavage came out at 0.0557.

G3C C35A: the self-cleavage was determined as 0.0343.

As to G2C G17U, the self-cleavage was 0.0711.

Turning to G2C U20G, the self-cleavage was determined as 0.0688.

For G3C A59U, the self-cleavage turned out to be 0.0529.

As to G3U A51G, the self-cleavage came out at 0.0734.

As for G3C G65A, the self-cleavage turned out to be 0.117.

Consider G3U C9U, for which the self-cleavage was found to be 0.521.

On to G3U C9A, for which the self-cleavage is 0.655.

Regarding G2U U36G, the self-cleavage stood at 0.0492.

In the case of G2A G5U, the self-cleavage came to 0.0444.

G3A C39G: the self-cleavage was found to be 0.39.

Take G2U C54A: the self-cleavage was 0.0587.

With G2C C29A, the self-cleavage amounted to 0.0311.

As for G3A G48C, the self-cleavage amounted to 0.698.

Turning to G3A G14A, the self-cleavage is 0.329.

As to G3A G14U, the self-cleavage came to 0.29.

For G3C U64G, the self-cleavage is 0.0913.

In the case of G2A A16G, the self-cleavage was 0.179.

With G2A A16C, the self-cleavage came to 0.0551.

For the variant G3U A59G, the self-cleavage was 0.0478.

Take G2U A10U: the self-cleavage was found to be 0.138.

For the variant G2U A10G, the self-cleavage is 0.116.

Turning to G3A G5C, the self-cleavage is 0.123.
